Reference: patent US20260209358A1

T1: CD37 on CD37+ target tumor cells (Daudi or Ramos cells) (UniProt P11049)
T1 sequence (looked up): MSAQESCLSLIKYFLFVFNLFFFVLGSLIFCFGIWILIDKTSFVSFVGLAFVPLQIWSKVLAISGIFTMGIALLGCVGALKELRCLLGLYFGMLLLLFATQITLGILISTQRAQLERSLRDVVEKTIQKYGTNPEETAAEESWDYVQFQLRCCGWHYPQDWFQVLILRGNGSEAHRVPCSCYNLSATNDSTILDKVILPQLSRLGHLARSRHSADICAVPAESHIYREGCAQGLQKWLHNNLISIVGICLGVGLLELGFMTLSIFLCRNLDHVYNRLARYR


Key:
[1] = target: T1, CD37 on CD37+ target tumor cells (Daudi or Ramos cells); experiment: cell-based or functional assay
[2] = target: hNKp46-His (extracellular domain of hNKp46 with a C-terminal polyhistidine tag) (human) (UniProt O76036); experiment: BLI (Octet RED96), hNKp46-His on Ni-NTA biosensors, MB in solution, 1:1 fit
Chain of UniProt O76036 (O76036 22-258): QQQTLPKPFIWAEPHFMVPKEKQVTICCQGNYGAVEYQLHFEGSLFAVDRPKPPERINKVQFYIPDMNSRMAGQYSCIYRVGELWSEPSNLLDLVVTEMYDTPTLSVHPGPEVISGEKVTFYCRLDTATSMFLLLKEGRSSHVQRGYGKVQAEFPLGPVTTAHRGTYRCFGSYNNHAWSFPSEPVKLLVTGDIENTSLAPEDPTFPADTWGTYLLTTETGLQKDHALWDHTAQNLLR

Row | EC50 of ADCC (calcein release) on Ramos cells with primary human NK cells [1] [pM] | EC50 of ADCP on Ramos cells with THP-1 effector cells [1] [pM] | EC50 of CDC (PI+ cells) on Daudi cells with normal human serum [1] [pM] | Kd [2] [pM] | koff [2] [s⁻¹] | kon [2] [M⁻¹ s⁻¹] | EC50 of apoptosis (Annexin-V+ cells, flow cytometry) on Daudi cells [1] [pM] | Binder
1 | 5.97 | 37.4 | 450 |  |  |  |  | Naratuximab IgG (parent CD37 IgG) (antibody, V domains shown) VH: QVQVQESGPGLVAPSQTLSITCTVSGFSLTTSGVSWVRQPPGKGLEWLGVIWGDGSTNYHPSLKSRLSIKKDHSKSQVFLKLNSLTAADTATYYCAKGGYSLAHWGQGTLVTVSS VL: DIQMTQSPSSLSVSVGERVTITCRASENIRSNLAWYQQKPGKSPKLLVNVATNLADGVPSRFSGSGSGTDYSLKINSLQPEDFGTYYCQHYWGTTWTFGQGTKLEIKR
2 | 0.843 |  |  | < 1 | < 1e-07 | 1.63e+06 |  | Naratuximab × NKp46 09 CD37/NKp46 bispecific MB (protein, part only; not given: Fab constants, linkers, ferritin, scFc, not shown: another chain or arm of the molecule; large carriers; small tags and cut ends) VH 1: EVQLQQSGAEVKKPGSSVKVSCKTSGYTFTEYSMHWVRQAPGKSLEWFGGISPNSGGTSYNQKFKGRATLTVDKSSSTAYMELSSLRSEDTAVYYCARRDFHSSFDYWGQGTTVTVSS VL 1: DIVMTQSPATLSLSPGERATLSCRASQSISDYLHWFQQKPHESPRLLIKYASQSISGIPARFSGSGSGSDFTLTISSLEPEDFAVYYCQNGHSFPLTFGPGTKVDIK VH 2: QVQVQESGPGLVAPSQTLSITCTVSGFSLTTSGVSWVRQPPGKGLEWLGVIWGDGSTNYHPSLKSRLSIKKDHSKSQVFLKLNSLTAADTATYYCAKGGYSLAHWGQGTLVTVSS VL 2: DIQMTQSPSSLSVSVGERVTITCRASENIRSNLAWYQQKPGKSPKLLVNVATNLADGVPSRFSGSGSGTDYSLKINSLQPEDFGTYYCQHYWGTTWTFGQGTKLEIK
3 | 0.316 |  |  | < 1 | < 1e-07 | 3.65e+06 | 54 | Naratuximab × NKp46-1 H1L1 CD37/NKp46 bispecific MB (protein, part only; not given: Fab constants, linkers, ferritin, scFc, not shown: another chain or arm of the molecule; large carriers; small tags and cut ends) VH 1: QVQLVQSGAEVKKPGSSVKVSCKASGYTFSDYVINWVRQAPGQGLEWMGEIYPGSGTNYYNEKFKAKATITADKSTSTAYMELSSLRSEDTAVYYCARRGRYGLYAMDYWGQGTTVTVSS VL 1: DIQMTQSPSSLSASVGDRVTITCRASQDISNYLNWYQQKPGKAPKLLIYYTSRLHSGVPSRFSGSGSGTDFTFTISSLQPEDIATYFCQQGNTRPWTFGGGTKVEIK VH 2: QVQVQESGPGLVAPSQTLSITCTVSGFSLTTSGVSWVRQPPGKGLEWLGVIWGDGSTNYHPSLKSRLSIKKDHSKSQVFLKLNSLTAADTATYYCAKGGYSLAHWGQGTLVTVSS VL 2: DIQMTQSPSSLSVSVGERVTITCRASENIRSNLAWYQQKPGKSPKLLVNVATNLADGVPSRFSGSGSGTDYSLKINSLQPEDFGTYYCQHYWGTTWTFGQGTKLEIK
4 | 0.374 |  |  | < 1 | < 1e-07 | 2.2e+06 | 32 | Naratuximab × NKp46-2 H1L1 CD37/NKp46 bispecific MB (protein, part only; not given: Fab constants, linkers, ferritin, scFc, not shown: another chain or arm of the molecule; large carriers; small tags and cut ends) VH 1: QVQLQESGPGLVKPSQTLSLTCTVSGYSISSDYAWNWIRQPPGKGLEWIGYITYSGSTSYNPSLESRVTISRDTSKNQFSLKLSSVTAADTAVYYCARGGYYGSSWGVFAYWGQGTLVTVSS VL 1: DIQMTQSPSSLSASVGDRVTITCRVSENIYSYLAWYQQKPGKAPKLLVYNAKTLAEGVPSRFSGSGSGTDFTLTISSLQPEDFATYYCQHHYGTPWTFGGGTKVEIK VH 2: QVQVQESGPGLVAPSQTLSITCTVSGFSLTTSGVSWVRQPPGKGLEWLGVIWGDGSTNYHPSLKSRLSIKKDHSKSQVFLKLNSLTAADTATYYCAKGGYSLAHWGQGTLVTVSS VL 2: DIQMTQSPSSLSVSVGERVTITCRASENIRSNLAWYQQKPGKSPKLLVNVATNLADGVPSRFSGSGSGTDYSLKINSLQPEDFGTYYCQHYWGTTWTFGQGTKLEIK
5 | 0.777 |  |  | 17.5 | 3.42e-05 | 1.96e+06 | 73 | Naratuximab × NKp46-4 H1L2 CD37/NKp46 bispecific MB (protein, part only; not given: Fab constants, linkers, ferritin, scFc, not shown: another chain or arm of the molecule; large carriers; small tags and cut ends) VH 1: QVQLVQSGAEVKKPGASVKVSCKASGYTFTSFTMHWVRQAPGQGLEWIGYINPSSGYTEYNQKFKDRVTITADKSTSTAYMELSSLRSEDTAVYYCVRGSSRGFDYWGQGTLVTVSS VL 1: DIQMTQSPSSLSASVGDRVTITCRASENIYSNLAWFQQKPGKAPKLLVYAATNLADGVPSRFSGSGSGTDYTLTISSLQPEDFATYYCQHFWGTPRTFGGGTKVEIK VH 2: QVQVQESGPGLVAPSQTLSITCTVSGFSLTTSGVSWVRQPPGKGLEWLGVIWGDGSTNYHPSLKSRLSIKKDHSKSQVFLKLNSLTAADTATYYCAKGGYSLAHWGQGTLVTVSS VL 2: DIQMTQSPSSLSVSVGERVTITCRASENIRSNLAWYQQKPGKSPKLLVNVATNLADGVPSRFSGSGSGTDYSLKINSLQPEDFGTYYCQHYWGTTWTFGQGTKLEIK
6 | 8.34 | 21.4 |  |  |  |  |  | 016-H5L2 IgG (parent CD37 IgG) (antibody, V domains shown) VH: EVQLVESGGGLVQPGGSLRLSCAASGFSLSNYNMGWVRQAPGKGLEWVSVIDASGTTYYATWAKGRFTISRDNSKNTLYLQMNSLRAEDTATYYCARELLYFGSSYYDLWGQGTLVTVSS VL: DVVMTQSPSTLSASVGDRVTITCQASQNIDSNLAWYQQKPGKAPKFLIYYASNLPFGVPSRFKGSGSGTEFTLTISSLQPDDFATYYCQSADVGSTYVAAFGGGTKVEIK
7 | 1.2 |  |  | < 1 | < 1e-07 | 2.15e+06 | 102 | 016-H5L2 × NKp46-1 H1L1 CD37/NKp46 bispecific MB (protein, part only; not given: Fab constants, linkers, ferritin, scFc, not shown: another chain or arm of the molecule; large carriers; small tags and cut ends, The variable domains sit in single-chain Fabs fused to human ferritin light chain. The NKp46 chain also carries a C-terminal scFc. The chains form a self-assembled multivalent nanocage.) VH 1: EVQLVESGGGLVQPGGSLRLSCAASGFSLSNYNMGWVRQAPGKGLEWVSVIDASGTTYYATWAKGRFTISRDNSKNTLYLQMNSLRAEDTATYYCARELLYFGSSYYDLWGQGTLVTVSS VL 1: DVVMTQSPSTLSASVGDRVTITCQASQNIDSNLAWYQQKPGKAPKFLIYYASNLPFGVPSRFKGSGSGTEFTLTISSLQPDDFATYYCQSADVGSTYVAAFGGGTKVEIK VH 2: QVQLVQSGAEVKKPGSSVKVSCKASGYTFSDYVINWVRQAPGQGLEWMGEIYPGSGTNYYNEKFKAKATITADKSTSTAYMELSSLRSEDTAVYYCARRGRYGLYAMDYWGQGTTVTVSS VL 2: DIQMTQSPSSLSASVGDRVTITCRASQDISNYLNWYQQKPGKAPKLLIYYTSRLHSGVPSRFSGSGSGTDFTFTISSLQPEDIATYFCQQGNTRPWTFGGGTKVEIK
8 | 3.73 |  |  | < 1 | < 1e-07 | 1.67e+06 | 142 | 016-H5L2 × NKp46-4 H1L2 CD37/NKp46 bispecific MB (protein, part only; not given: Fab constants, linkers, ferritin, scFc, not shown: another chain or arm of the molecule; large carriers; small tags and cut ends, The variable domains sit in single-chain Fabs fused to human ferritin light chain. The NKp46 chain also carries a C-terminal scFc. The chains form a self-assembled multivalent nanocage.) VH 1: EVQLVESGGGLVQPGGSLRLSCAASGFSLSNYNMGWVRQAPGKGLEWVSVIDASGTTYYATWAKGRFTISRDNSKNTLYLQMNSLRAEDTATYYCARELLYFGSSYYDLWGQGTLVTVSS VL 1: DVVMTQSPSTLSASVGDRVTITCQASQNIDSNLAWYQQKPGKAPKFLIYYASNLPFGVPSRFKGSGSGTEFTLTISSLQPDDFATYYCQSADVGSTYVAAFGGGTKVEIK VH 2: QVQLVQSGAEVKKPGASVKVSCKASGYTFTSFTMHWVRQAPGQGLEWIGYINPSSGYTEYNQKFKDRVTITADKSTSTAYMELSSLRSEDTAVYYCVRGSSRGFDYWGQGTLVTVSS VL 2: DIQMTQSPSSLSASVGDRVTITCRASENIYSNLAWFQQKPGKAPKLLVYAATNLADGVPSRFSGSGSGTDYTLTISSLQPEDFATYYCQHFWGTPRTFGGGTKVEIK
9 | 2.72 |  |  | < 1 | < 1e-07 | 1.06e+06 |  | 016-H5L2 × NKp46 09 CD37/NKp46 bispecific MB (protein, part only; not given: Fab constants, linkers, ferritin, scFc, not shown: another chain or arm of the molecule; large carriers; small tags and cut ends, The variable domains sit in single-chain Fabs fused to human ferritin light chain. The NKp46 chain also carries a C-terminal scFc. The chains form a self-assembled multivalent nanocage.) VH 1: EVQLVESGGGLVQPGGSLRLSCAASGFSLSNYNMGWVRQAPGKGLEWVSVIDASGTTYYATWAKGRFTISRDNSKNTLYLQMNSLRAEDTATYYCARELLYFGSSYYDLWGQGTLVTVSS VL 1: DVVMTQSPSTLSASVGDRVTITCQASQNIDSNLAWYQQKPGKAPKFLIYYASNLPFGVPSRFKGSGSGTEFTLTISSLQPDDFATYYCQSADVGSTYVAAFGGGTKVEIK VH 2: EVQLQQSGAEVKKPGSSVKVSCKTSGYTFTEYSMHWVRQAPGKSLEWFGGISPNSGGTSYNQKFKGRATLTVDKSSSTAYMELSSLRSEDTAVYYCARRDFHSSFDYWGQGTTVTVSS VL 2: DIVMTQSPATLSLSPGERATLSCRASQSISDYLHWFQQKPHESPRLLIKYASQSISGIPARFSGSGSGSDFTLTISSLEPEDFAVYYCQNGHSFPLTFGPGTKVDIK
10 | 2.91 |  |  | < 1 | < 1e-07 | 1.25e+06 |  | 016-H5L2 × NKp46-2 H1L1 CD37/NKp46 bispecific MB (protein, part only; not given: Fab constants, linkers, ferritin, scFc, not shown: another chain or arm of the molecule; large carriers; small tags and cut ends, The variable domains sit in single-chain Fabs fused to human ferritin light chain. The NKp46 chain also carries a C-terminal scFc. The chains form a self-assembled multivalent nanocage.) VH 1: EVQLVESGGGLVQPGGSLRLSCAASGFSLSNYNMGWVRQAPGKGLEWVSVIDASGTTYYATWAKGRFTISRDNSKNTLYLQMNSLRAEDTATYYCARELLYFGSSYYDLWGQGTLVTVSS VL 1: DVVMTQSPSTLSASVGDRVTITCQASQNIDSNLAWYQQKPGKAPKFLIYYASNLPFGVPSRFKGSGSGTEFTLTISSLQPDDFATYYCQSADVGSTYVAAFGGGTKVEIK VH 2: QVQLQESGPGLVKPSQTLSLTCTVSGYSISSDYAWNWIRQPPGKGLEWIGYITYSGSTSYNPSLESRVTISRDTSKNQFSLKLSSVTAADTAVYYCARGGYYGSSWGVFAYWGQGTLVTVSS VL 2: DIQMTQSPSSLSASVGDRVTITCRVSENIYSYLAWYQQKPGKAPKLLVYNAKTLAEGVPSRFSGSGSGTDFTLTISSLQPEDFATYYCQHHYGTPWTFGGGTKVEIK
